The target of this experiment is T1, alpha-7 nicotinic receptor (human, UniProt P36544 23-502).
T1 construct: Endogenous receptor in human brain homogenate, captured by biotinylated BTX on SA-donor beads in the AlphaLISA; also called alpha-7 receptor
The experiment is described as follows: AlphaLISA of T14-alpha-7 complex in human hippocampal tissue lysate (biotinylated BTX on SA-donor beads, anti-T14 on acceptor beads). As to the method:
Samples were extracted from homogenized human brain tissue using PerkinElmer lysis buffer and the protein concentration determined using the BCA method. For 100 mg tissue homogenization, 1 mL of lysis buffer was used. Five cycles of 40 second pulse, and 10 second breaks, on a shielded homogenizer were used for each sample. Samples were centrifuged at […], 15000 rpm (15 minutes) for supernatants; these were diluted in PerkinElmer Assay buffer and used to measure T14-alpha-7 nicotinic receptor complexes in the presence of NBP14 (concentrations 0.065 μM-900 μM) with AlphaLISA following the manufacturer's protocol. The antibodies were biotinylated BTX on SA-donor beads and anti-rabbit T14 on acceptor beads; results read in an AlphaLISA Reader.

T1 sequence (P36544 23-502 limits assumed): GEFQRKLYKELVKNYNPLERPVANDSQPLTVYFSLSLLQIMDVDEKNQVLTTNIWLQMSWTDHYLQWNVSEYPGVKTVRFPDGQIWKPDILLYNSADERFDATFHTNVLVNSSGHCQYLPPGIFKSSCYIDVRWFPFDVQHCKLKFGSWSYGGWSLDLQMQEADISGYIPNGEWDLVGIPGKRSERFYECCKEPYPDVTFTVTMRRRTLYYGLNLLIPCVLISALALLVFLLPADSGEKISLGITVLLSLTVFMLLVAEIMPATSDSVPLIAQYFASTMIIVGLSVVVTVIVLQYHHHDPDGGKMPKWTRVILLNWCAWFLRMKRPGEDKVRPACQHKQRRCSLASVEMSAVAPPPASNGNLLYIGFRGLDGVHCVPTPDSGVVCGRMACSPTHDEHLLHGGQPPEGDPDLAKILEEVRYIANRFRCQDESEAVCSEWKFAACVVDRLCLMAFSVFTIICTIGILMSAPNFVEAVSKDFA

B1: T14 peptide (AChE-derived peptide, SEQ ID No:3) (peptide)
peptide: AEFHRWSSYMVHWK
notes: In the assays this was endogenous T14 in human brain tissue, CSF or plasma; Synthetic T14 served as the positive control and standard
With B1, the binding result is recorded as “binds”.
